The values below come from article PMC8336894 (Genes & Development, 2021).

The assay deals with T1, CRY1 (human (endogenous in HEK293), UniProt Q16526 1-586).
T1 sequence (looked up): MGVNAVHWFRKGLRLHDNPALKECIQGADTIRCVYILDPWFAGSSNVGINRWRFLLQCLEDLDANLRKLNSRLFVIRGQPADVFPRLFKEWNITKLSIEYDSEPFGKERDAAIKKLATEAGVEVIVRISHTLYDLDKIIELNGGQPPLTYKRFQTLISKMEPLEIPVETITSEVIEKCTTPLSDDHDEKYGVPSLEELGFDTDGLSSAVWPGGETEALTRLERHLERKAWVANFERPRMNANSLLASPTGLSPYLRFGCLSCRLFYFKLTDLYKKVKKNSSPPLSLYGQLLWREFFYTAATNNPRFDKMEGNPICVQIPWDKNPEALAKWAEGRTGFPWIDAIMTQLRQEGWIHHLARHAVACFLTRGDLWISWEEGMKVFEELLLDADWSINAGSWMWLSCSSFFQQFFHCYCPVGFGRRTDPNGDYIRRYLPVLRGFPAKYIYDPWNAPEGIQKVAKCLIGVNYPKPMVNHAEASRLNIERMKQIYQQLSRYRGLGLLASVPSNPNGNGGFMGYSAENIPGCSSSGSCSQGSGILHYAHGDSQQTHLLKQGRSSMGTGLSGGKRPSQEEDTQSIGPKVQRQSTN
The experiment in a line: co-IP.

B1: BMAL1-luciferase fusion protein (natural protein)
chain: not shown
Take B1: the “fold luciferase activity in the precipitate over the IgG control” value was around 3 fold.
